Data on 1 substance can be found in PMC4041088.

The assay deals with FLAG-tagged murine lipin 1b (murine) (UniProt Q91ZP3). The experiment in a line: atomic force microscopy.

Usually stoichiometry N stands for a count of units in the complex or per binding partner. Turning to “FLAG-tagged murine lipin 1b (from UniProt Q91ZP3 1-924) (enzyme)”, the stoichiometry N was 12.
